Reference: patent publication US20040175364A1

Target: Adenovirus 5 receptor (cell surface fiber receptor on HeLa cells)
Experiment: cell-based or functional assay

Adenovirus 5 fiber protein (from UniProt P11818 1-581) (ligand)
percentage of adenoviral transduction of HeLa cells by Av1LacZ4 (β-galactosidase positive cells) after preincubation with competitor fiber: 0.1 to 1 pg/mL
